{"source": "patent US20110124565", "tested_on": "FVIII L99 (B domain deleted FVIII with R372A and Val374 replaced by a 99 amino acid Gly/Ser linker)", "data": [{"substance": "human activated Protein C", "values": [{"measurement": "remaining FVIII activity (FXa generation test) after addition of human APC with or without protein S", "value": "FVIII L99 could be inactivated by human APC with or without Protein S"}]}]}
